Laboratory results as given in the supplement of paper PMC10567573.

B1: SMOC2 (parent)
chain: PALETQPQGDEEDIASRYPTLWTE
B2: TSN (parent)
chain: FVELQGFLAAEQDIREEIRKVVQS

Variants of: B1
Assay: protein stability index of a GFP-peptide fusion (GPS, HEK-293T) (PSI 1-6); higher = more stable
Conditions: c terminus: a fixed tail appended
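Further: lentivirally expressed fusions sorted by FACS into six bins by GFP to DsRed ratio, PSI derived from sequencing read proportions per bin multiplied by bin number.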

Protein stability index of substitutions, site by site:
Y18: R 4.53 | M 4.59 | T 4.67 | E 4.74 | K 3.34 | G 4.61 | W 4.6 | Q 4.39 | H 4.87 | I 4.18 | N 4.24 | V 4.07 | D 5.89 | P 4.14 | F 4.25 | A 4.64 | C 4.32 | S 4.65 | L 4.42
T23: I 4.28 | E 5.39 | Q 4.43 | M 5.08 | F 5.22 | P 5.28 | K 4.58 | L 5.29 | W 5.08 | N 5.66 | Y 5.37 | H 5.75 | A 4.21 | V 2.74 | S 5.28 | C 5.02 | D 5.55 | R 5.13
P19: G 4.87 | V 5.11 | Q 5.13 | H 4.18 | C 5.15 | I 4.24 | K 4.32 | Y 4.45 | R 4.2 | D 4.97 | S 4.6 | A 5.73 | L 4.87 | N 4.72 | E 5.49 | M 4.32 | F 4.87 | T 4.53
L21: R 4.91 | V 4.75 | A 5.65 | W 5.13 | M 5.37 | F 4.27 | S 4.75 | P 5.64 | H 5.91 | C 4.64 | I 5.53 | Y 3.92 | N 5.73 | D 5.72 | Q 5.66 | K 5.12 | T 3.98 | E 5.39
W22: F 5.71 | T 5.67 | R 5.39 | Q 5.51 | V 5.9 | D 5.62 | K 5.3 | A 5.45 | P 5.92 | S 5.77 | E 5.2 | N 5.8 | H 5.48 | Y 4.73 | L 5.78 | G 4.47 | C 5.32 | I 5.58 | M 5.49
T20: W 4.67 | R 3.88 | H 4.87 | L 4.66 | E 4.41 | M 4.4 | A 4.31 | I 3.3 | D 5.59 | V 3.99 | Q 3.83 | C 3.77 | Y 4.1 | N 4.27 | P 4.78 | G 4.41 | K 4.37 | F 4.6
E24: V 4.22 | W 4.17 | D 4.68 | Y 4.41 | G 5.22 | C 4.22 | R 4.81 | L 4.19 | A 4.67 | I 3.97 | M 3.94 | S 4.78 | H 4.47 | T 4.65 | P 5.1 | Q 4.82 | F 4.17 | N 3.73 | K 5.17
R17: W 4.2 | Y 3.69 | P 4.53 | V 4.36 | S 4.26 | T 4.29 | Q 4.78

Variants of: B2
Assay: as above
Conditions: c terminus: a fixed tail appended

Protein stability index of substitutions, site by site:
Q23: M 1.98 | D 3.47 | F 2.61 | T 2.38 | L 1.92 | C 3.33
K20: H 1.94 | R 1.99 | G 1.7 | L 1.83 | I 3.91 | Y 2.21 | M 1.89 | C 2.75 | T 1.89 | P 2.1 | A 2.27 | S 1.96
V2: L 1.67 | E 3.95 | S 1.65 | G 1.75 | W 1.33 | I 1.51 | P 2.47 | Y 2.31 | F 1.75 | T 1.68 | D 4.19 | M 2.3 | Q 1.17
I14: A 2.73 | E 3.21 | Y 1.23 | D 1.4 | T 2.01 | W 2.36 | R 1.64
R15: W 1.39 | L 2.35 | G 1.41 | M 1.83 | C 1.82 | E 2.06 | S 1.98 | D 1.26 | Y 1.76
F1: W 1.14 | P 2.9 | N 3.67 | H 3.96 | I 2.08 | L 4.18 | G 3.24 | Y 3.21 | A 3.48 | R 3.12 | T 3.62
Q12: C 1.92 | E 3.62 | V 2.6 | A 3.3 | M 2.17 | P 1.39 | R 3.99
A9: I 2.48 | L 1.57 | Q 1.63 | P 1.02 | W 3.23 | R 1.93 | G 1.62 | K 1.73 | N 2.25
E17: H 2.3 | R 1.48 | V 2.91 | G 2.42 | M 2.49 | Y 1.93 | L 2.69
L8: Y 1.8 | N 2.31 | M 2.07 | R 3.58 | C 1.83 | Q 1.37 | E 2.44 | S 1.47 | D 2.68 | K 1.72
V21: Q 2.13 | P 2.51 | E 1.55 | N 2.47 | W 2.27 | A 1.29 | S 1.45 | G 1.69 | Y 1.68 | M 1.21 | K 1.79 | I 3.69
R19: V 1.97 | N 2.38 | I 1.78 | C 2.32 | K 2.67 | Y 1.46 | Q 3.16 | G 3 | T 2.25 | A 2.44 | S 3.87 | D 1.6
A10: H 1.74 | R 1.8 | D 1.35 | I 2.04 | K 1.62 | E 4.05 | F 2.15
F7: C 2.68 | N 2.71 | Y 1.33 | T 2 | D 2.84 | H 2.14 | R 2.04 | M 2.01 | A 1.64 | E 3.11
G6: N 2.42 | T 2.32 | I 2.19 | E 2.06 | M 2.16 | F 1.68
Q5: V 2.38 | K 2.12 | D 1.23 | C 5.07 | W 1
V22: M 1.42 | W 2.27 | R 1.7 | G 1.55 | E 2.23 | P 3.2 | H 2.65 | I 3.83 | K 1.62
E16: H 1.34 | D 3.34 | R 2.3 | T 1.14
D13: S 1.52 | A 3.62 | H 2.78 | F 1.85
E3: F 1.6 | Y 1.64 | P 1.53 | Q 2.4 | W 1.75 | T 2.59 | R 1.25 | M 2.97 | C 2.23 | N 2.45
E11: A 1.05 | N 2.16 | C 1.92 | K 2.13 | I 1.86 | Y 2.09 | F 1.29 | R 2.52 | L 2.02 | D 1.39
I18: F 2.06 | R 1.68 | S 1.75 | D 1.62 | H 1.24 | A 1.82
S24: K 1.42 | G 2.37 | Q 1.97
L4: D 2.22 | E 2.17 | R 1.97 | H 1.52 | T 3.35 | Q 1.35 | W 1.21 | I 1.79 | N 1.43
